# System: O=c1[nH]c(=O)c2[nH]cnc2[nH]1
# Assay: cells, lysate or membranes
# Conditions: labelled compound, H+ symport, MM pH 6.8, 37 °C
row,Substance,Km [µM]
1,UapA (Aspergillus nidulans FGSC A4),5 ± 2
2,UapA (Aspergillus nidulans FGSC A4; K73A/R133A),3.6
